Results: US20050070470A1 (ADMINISTRATORS OF THE TULANE EDUCATIONAL FUND, published 2005)
*1 amine or outer side, *2 acyl side, *3 side chain or, on linkers, in order; H or OH if unused. Bridges are numbered along the chain shown (N, C = ends). Where no end group is shown, it is not given here. [ ]: non-standard residue; d: D form. MTXCOO‑CH2CO = methotrexate-acetyl; 4Pal = N[C@@H](Cc1ccncc1)C(=O)O; Suc = O=C(CCC(=O)[*:2])[*:1]; Nle = CCCC[C@H](N)C(=O)O; Abu = CC[C@H](N)C(=O)O

B1: D-Ser-D-Ser-D-Ser-D-Ser-D-Ser-L-Asp-D-Tyr-D-Ser-cyclo[L-Cys-L-Phe-D-Trp-L-Lys-L-Thr-L-Cys]-L-Thr-NH2 (peptide)
peptide: [dS][dS][dS][dS][dS]D[dY][dS]CF[dW]KTCT-NH2
modifications: disulfide 9-14; N-terminus assumed
SMILES: C[C@@H](O)[C@H](NC(=O)[C@@H]1CSSC[C@H](NC(=O)[C@@H](CO)NC(=O)[C@@H](Cc2ccc(O)cc2)NC(=O)[C@H](CC(=O)O)NC(=O)[C@@H](CO)NC(=O)[C@@H](CO)NC(=O)[C@@H](CO)NC(=O)[C@@H](CO)NC(=O)[C@H](N)CO)C(=O)N[C@@H](Cc2ccccc2)C(=O)N[C@H](Cc2c[nH]c3ccccc23)C(=O)N[C@@H](CCCCN)C(=O)N[C@@H]([C@@H](C)O)C(=O)N1)C(N)=O
B2: D-Ser-D-Ser-D-Ser-D-Ser-D-Ser-L-Gln-D-Tyr-D-Ser-cyclo[L-Cys-L-Phe-D-Trp-L-Lys-L-Thr-L-Cys]-L-Thr-NH2 (peptide)
peptide: [dS][dS][dS][dS][dS]Q[dY][dS]CF[dW]KTCT-NH2
modifications: disulfide 9-14; N-terminus assumed
SMILES: C[C@@H](O)[C@H](NC(=O)[C@@H]1CSSC[C@H](NC(=O)[C@@H](CO)NC(=O)[C@@H](Cc2ccc(O)cc2)NC(=O)[C@H](CCC(N)=O)NC(=O)[C@@H](CO)NC(=O)[C@@H](CO)NC(=O)[C@@H](CO)NC(=O)[C@@H](CO)NC(=O)[C@H](N)CO)C(=O)N[C@@H](Cc2ccccc2)C(=O)N[C@H](Cc2c[nH]c3ccccc23)C(=O)N[C@@H](CCCCN)C(=O)N[C@@H]([C@@H](C)O)C(=O)N1)C(N)=O
B3: D-Ser-D-Ser-D-Ser-D-Ser-D-Ser-L-4Pal-D-Tyr-D-Ser-cyclo[L-Cys-L-Phe-D-Trp-L-Lys-L-Thr-L-Cys]-L-Thr-NH2 (peptide)
peptide: [dS][dS][dS][dS][dS][4Pal][dY][dS]CF[dW]KTCT-NH2
modifications: disulfide 9-14; N-terminus assumed
SMILES: C[C@@H](O)[C@H](NC(=O)[C@@H]1CSSC[C@H](NC(=O)[C@@H](CO)NC(=O)[C@@H](Cc2ccc(O)cc2)NC(=O)[C@H](Cc2ccncc2)NC(=O)[C@@H](CO)NC(=O)[C@@H](CO)NC(=O)[C@@H](CO)NC(=O)[C@@H](CO)NC(=O)[C@H](N)CO)C(=O)N[C@@H](Cc2ccccc2)C(=O)N[C@H](Cc2c[nH]c3ccccc23)C(=O)N[C@@H](CCCCN)C(=O)N[C@@H]([C@@H](C)O)C(=O)N1)C(N)=O
B4: D-Ser-D-Ser-D-Ser-D-Ser-D-Ser-L-Lys-D-Tyr-D-Ser-cyclo[L-Cys-L-Phe-D-Trp-L-Lys-L-Thr-L-Cys]-L-Thr-NH2 (peptide)
peptide: [dS][dS][dS][dS][dS]K[dY][dS]CF[dW]KTCT-NH2
modifications: disulfide 9-14; not fully specified; printed as D-Ser-D-Ser-D-Ser-D-Ser-D-Ser-L-Lys-D-Tyr-D-Ser-cyclo[L-Cys-L-Phe-D-Trp-L-Lys-L-Thr-L-Cys]-L-Thr-NH2
B5: Succinate-D-Asp-D-Ser-D-Ser-D-Ser-D-Ser-D-Ser-L-Thr-D-Tyr-D-Ser-cyclo[L-Cys-L-Phe-D-Trp-L-Lys-L-Thr-L-Cys]-L-Thr-NH2 (peptide)
peptide: Suc-[dD][dS][dS][dS][dS][dS]T[dY][dS]CF[dW]KTCT-NH2
modifications: disulfide 10-15
SMILES: C[C@@H](O)[C@H](NC(=O)[C@@H]1CSSC[C@H](NC(=O)[C@@H](CO)NC(=O)[C@@H](Cc2ccc(O)cc2)NC(=O)[C@@H](NC(=O)[C@@H](CO)NC(=O)[C@@H](CO)NC(=O)[C@@H](CO)NC(=O)[C@@H](CO)NC(=O)[C@@H](CO)NC(=O)[C@@H](CC(=O)O)NC(=O)CCC(=O)O)[C@@H](C)O)C(=O)N[C@@H](Cc2ccccc2)C(=O)N[C@H](Cc2c[nH]c3ccccc23)C(=O)N[C@@H](CCCCN)C(=O)N[C@@H]([C@@H](C)O)C(=O)N1)C(N)=O
B6: D-Ser-D-Ser-D-Ser-D-Ser-D-Ser-L-Thr-D-Tyr-D-Ser-cyclo[L-Cys-L-Phe-D-Trp-L-Lys-L-Thr-L-Cys]-L-Thr-NH2 (peptide)
peptide: [dS][dS][dS][dS][dS]T[dY][dS]CF[dW]KTCT-NH2
modifications: disulfide 9-14; N-terminus assumed
SMILES: C[C@@H](O)[C@H](NC(=O)[C@@H]1CSSC[C@H](NC(=O)[C@@H](CO)NC(=O)[C@@H](Cc2ccc(O)cc2)NC(=O)[C@@H](NC(=O)[C@@H](CO)NC(=O)[C@@H](CO)NC(=O)[C@@H](CO)NC(=O)[C@@H](CO)NC(=O)[C@H](N)CO)[C@@H](C)O)C(=O)N[C@@H](Cc2ccccc2)C(=O)N[C@H](Cc2c[nH]c3ccccc23)C(=O)N[C@@H](CCCCN)C(=O)N[C@@H]([C@@H](C)O)C(=O)N1)C(N)=O
B7: D-Gln-D-Gln-D-Gln-D-Gln-D-Gln-D-Gln-D-Gln-D-Gln-D-Gln-D-Gln-L-Lys-D-Tyr-D-Tyr-cyclo[L-Cys-L-Phe-D-Trp-L-Lys-L-Thr-L-Cys]-L-Thr-NH2 (peptide)
peptide: [dQ][dQ][dQ][dQ][dQ][dQ][dQ][dQ][dQ][dQ]K[dY][dY]CF[dW]KTCT-NH2
modifications: disulfide 14-19; N-terminus assumed
SMILES: C[C@@H](O)[C@H](NC(=O)[C@@H]1CSSC[C@H](NC(=O)[C@@H](Cc2ccc(O)cc2)NC(=O)[C@@H](Cc2ccc(O)cc2)NC(=O)[C@H](CCCCN)NC(=O)[C@@H](CCC(N)=O)NC(=O)[C@@H](CCC(N)=O)NC(=O)[C@@H](CCC(N)=O)NC(=O)[C@@H](CCC(N)=O)NC(=O)[C@@H](CCC(N)=O)NC(=O)[C@@H](CCC(N)=O)NC(=O)[C@@H](CCC(N)=O)NC(=O)[C@@H](CCC(N)=O)NC(=O)[C@@H](CCC(N)=O)NC(=O)[C@H](N)CCC(N)=O)C(=O)N[C@@H](Cc2ccccc2)C(=O)N[C@H](Cc2c[nH]c3ccccc23)C(=O)N[C@@H](CCCCN)C(=O)N[C@@H]([C@@H](C)O)C(=O)N1)C(N)=O
B8: D-Ser-D-Ser-D-Ser-D-Ser-D-Ser-L-Norleucine-D-Tyr-D-Ser-cyclo[L-Cys-L-Phe-D-Trp-L-Lys-L-Thr-L-Cys]-L-Thr-NH2 (peptide)
peptide: [dS][dS][dS][dS][dS][Nle][dY][dS]CF[dW]KTCT-NH2
modifications: disulfide 9-14; N-terminus assumed
SMILES: CCCC[C@H](NC(=O)[C@@H](CO)NC(=O)[C@@H](CO)NC(=O)[C@@H](CO)NC(=O)[C@@H](CO)NC(=O)[C@H](N)CO)C(=O)N[C@H](Cc1ccc(O)cc1)C(=O)N[C@H](CO)C(=O)N[C@H]1CSSC[C@@H](C(=O)N[C@H](C(N)=O)[C@@H](C)O)NC(=O)[C@H]([C@@H](C)O)NC(=O)[C@H](CCCCN)NC(=O)[C@@H](Cc2c[nH]c3ccccc23)NC(=O)[C@H](Cc2ccccc2)NC1=O

Biological target: somatostatin subtype 2 rat receptor (rat, UniProt P30680 1-369)
Assay: cell-based or functional assay

Chain of somatostatin subtype 2 rat receptor (P30680 whole entry): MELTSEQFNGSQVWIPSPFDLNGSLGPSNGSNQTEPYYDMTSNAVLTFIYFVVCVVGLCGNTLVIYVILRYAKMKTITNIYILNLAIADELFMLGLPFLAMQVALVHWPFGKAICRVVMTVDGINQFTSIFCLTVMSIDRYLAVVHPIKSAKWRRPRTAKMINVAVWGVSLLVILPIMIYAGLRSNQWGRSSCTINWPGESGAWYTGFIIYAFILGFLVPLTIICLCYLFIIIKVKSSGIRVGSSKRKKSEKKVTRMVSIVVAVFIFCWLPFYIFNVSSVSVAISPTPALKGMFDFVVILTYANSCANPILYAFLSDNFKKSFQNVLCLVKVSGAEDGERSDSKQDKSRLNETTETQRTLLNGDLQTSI

| Binder | IC50 (nM), inhibition of GH release from primary cultures of rat pituitary cells [nM] |
| --- | --- |
| B1 | 7.55 |
| B2 | 0.45 |
| B3 | 0.18 |
| succinate-[dS][dS][dS][dS][dS][Abu][dY][dS]CF[dW]KTCT-NH2 (disulfide 9-14) | 0.61 |
| succinate-[dD][dS][dS][dS][dS][dS][Nle][dY][dS]CF[dW]KTCT-NH2 (disulfide 10-15) | 0.52 |
| {MTXCOO‑CH2CO}-[dK][dY]K[dY][dK]CF[dW]KTCT-NH2 (cysteine pairing not given here) [MTXCOO-CH2CO-D-Lys-D-Tyr-Lys-D-Tyr-D-Lys-Cys-Phe-D-Trp-Lys-Thr-Cys-Thr-NH2] | 0.62 |
| B4 | 0.086 |
| Succinate-[dS][dS][dS][dS][dS]S[dY][dS]CF[dW]KTCT-NH2 (disulfide 9-14) | 5.6 |
| {3‑N,N‑dimethylaminobenzoyl}-[dS][dS][dS][dS][dS][dS][dS][dS][dS][dS][dS][dS][dS][dS][dS]K[dY][dY]CF[dW]KTCT-NH2 (disulfide 19-24) | 0.27 |
| B5 | 5.17 |
| B6 | 0.72 |
| B7 | 0.24 |
| B8 | 0.094 |
